# Data as given in the Human Domainome abundance scans (Beltran et al. 2025).
# ± gives the uncertainty stated by the source.
# B1: Gamma-crystallin C, residues 91 to 170; numbered along this chain, P07315 (parent)
# chain: RLYEREDHKGLMMELSEDCPSIQDRFHLSEIRSLHVLEGCWVLYELPNYRGRQYLLRPQEYRRCQDWGAMDAKAGSLRRV
# Variants of: B1
# Experiment: abundance fitness (aPCA) (normalised: wild type 0, dead -1); higher = more abundant; growth selection in yeast, the domain comes from the species named
# Details: Homo sapiens
row,Variant,abundance fitness
1,L56G,-0.928 ± 0.11
2,L56M,-0.553 ± 0.23
3,L56W,-0.988 ± 0.18
4,L56R,-0.836 ± 0.1
5,L56E,-0.93 ± 0.41
6,L56T,-0.636 ± 0.18
7,L56I,-0.515 ± 0.25
8,L56H,-0.953 ± 0.32
9,L56A,-0.939 ± 0.21
10,L46Q,-0.262 ± 0.13
11,L46R,-0.146 ± 0.056
12,L46D,-0.43 ± 0.21
13,L46T,-0.863 ± 0.18
14,L46F,0.047 ± 0.095
15,L46V,-0.98 ± 0.35
16,L46E,0.04 ± 0.1
17,L46Y,-0.162 ± 0.14
18,L46N,-0.767 ± 0.46
19,L46G,-0.27 ± 0.037
20,L46K,-0.051 ± 0.089
21,L46M,-0.188 ± 0.13

row,Variant,abundance fitness
1,L46C,-0.075 ± 0.15
2,L46A,0.023 ± 0.1
3,L46W,-0.237 ± 0.12
4,R50G,0.04 ± 0.082
5,R50S,-0.007 ± 0.087
6,R50F,-0.375 ± 0.22
7,R50A,-0.066 ± 0.082
8,R50Y,-0.606 ± 0.42
9,R50K,-0.029 ± 0.16
10,R50P,-0.916 ± 0.23
11,R50W,-0.664 ± 0.14
12,R50E,-0.068 ± 0.096
13,R50T,-0.002 ± 0.096
14,R50C,-0.021 ± 0.097
15,R50V,-0.085 ± 0.1
16,R50M,-0.108 ± 0.17
17,R50Q,-0.012 ± 0.16
18,R50N,-0.242 ± 0.31
19,R50L,-0.063 ± 0.062
20,C64W,-0.086 ± 0.17
21,C64M,-0.404 ± 0.12

row,Variant,abundance fitness
1,C64S,-0.285 ± 0.071
2,C64P,0.014 ± 0.085
3,C64R,-0.653 ± 0.073
4,C64H,0.063 ± 0.1
5,C64T,-0.213 ± 0.25
6,C64Y,-0.116 ± 0.15
7,C64Q,-0.795 ± 0.23
8,C64F,-0.093 ± 0.14
9,C64G,-0.597 ± 0.099
10,C64V,-0.596 ± 0.091
11,C64L,-0.841 ± 0.099
12,C64A,-0.144 ± 0.061
13,P58I,-0.623 ± 0.17
14,P58F,-0.882 ± 0.42
15,P58L,-0.98 ± 0.19
16,P58T,-0.105 ± 0.1
17,P58V,-0.378 ± 0.12
18,P58D,-0.167 ± 0.15
19,P58H,-0.587 ± 0.3
20,P58K,-0.15 ± 0.3
21,P58G,-0.744 ± 0.13

row,Variant,abundance fitness
1,P58C,-0.334 ± 0.12
2,P58A,-0.167 ± 0.11
3,P58R,-0.453 ± 0.067
4,P58S,-0.202 ± 0.08
5,P58N,-0.268 ± 0.13
6,N48V,-0.929 ± 0.24
7,N48R,-0.234 ± 0.053
8,N48P,-0.65 ± 0.13
9,N48W,-0.151 ± 0.045
10,N48K,-0.215 ± 0.14
11,N48E,-0.314 ± 0.096
12,N48Y,-0.006 ± 0.23
13,N48D,-0.007 ± 0.13
14,N48G,-0.07 ± 0.055
15,N48S,-0.238 ± 0.069
16,N48F,0.077 ± 0.11
17,N48C,-0.339 ± 0.17
18,N48H,-0.022 ± 0.12
19,N48A,-0.348 ± 0.13
20,N48T,-0.823 ± 0.2
21,N48Q,-0.017 ± 0.12
